Data published in US20260266828A1, “BIOMARKERS FOR PREDICTING CANCER TREATMENT EFFICACY” (Arcus Biosciences, Inc., priority 2023, published 2026).

System: metastatic (Stage IV) squamous or non-squamous NSCLC
Assay: PFS in serum cytokine selected subsets of the trial of Example 2
Type: in vivo, human
Settings: median
Description: Soluble biomarkers were retrospectively analyzed in baseline and on-treatment peripheral blood derived samples obtained from a subset of subjects enrolled in the clinical trial of Example 2. Baseline samples were obtained on day 1 of cycle 1 (CID1), prior to administration of any study drugs. On-treatment samples were obtained on day 1 of cycle 2 (C2D1), prior to administration of study drugs on that day.
Blood collected in serum separator tubes was allowed to clot for 30-60 minutes before centrifugation at 1300 g for 10 minutes to separate the serum. Serum was isolated and stored at −80° C. until cytokine analysis. Serum cytokines were quantified in multiplex assays using the Meso Scale Discovery platform following the manufacturer's protocol. Briefly, plates were coated with biotinylated capture antibodies specific to the analyte of interest bound to linkers specific to unique spots in each well of a 96-well plate. Serum samples, assessed in duplicate, were diluted 8-fold to quantify CXCL9, CXCL10, CXCL11 and IL-18 in a U-plex assay, diluted 10-fold to quantify IL-12B in a U-plex assay, and diluted 5-fold to quantify IFNγ, TNFα and IL-6 in the S-plex assay. Samples were incubated on linker/capture antibody-coated plates, followed by detection with a sulfo-tag-labelled antibody for the U-plex assays and a TURBO-tag-labelled antibody for the S-plex assay. For the S-plex assay, additional steps incorporated in the manufacturer's protocol to amplify signal with enhance solution and detection solution were followed. Following addition of read buffer, the electrochemiluminescent signal was measured on a MESO Sector S 600 instrument. Between each step of the protocol plates were washed with 0.05% Tween-PBS. A standard curve was generated for each plate using a 4-parameter logistic fit with 1/y^2 weighting. Cytokine concentrations in samples were interpolated using the standard curve, allowing quantification of the analyte of interest. Fold change from baseline was calculated as a ratio of the cytokine concentration at C2D1 over the cytokine concentration at baseline. A linear mixed model performed on log transformed raw cytokine values with baseline values as covariates assessed the difference in cytokine levels over time and between treatment groups.
Kaplan-Meier survival plots using progression-free survival data and cytokine concentrations were generated in the Jmp software, and hazard ratios were calculated between patient groups of interest. Comparisons were made for each analyte between zimberelimab monotherapy and domvanalimab combination groups both at baseline and using the fold change at C2D1 using median values to stratify patients in to low and high cytokine groups. Stratifying subjects by baseline cytokine expression (e.g., CXCL9, CXCL10, CXCL11, LL-6, TNFα) around the median value (high vs. low) enriched for clinical benefit with the addition of domvanalimab. Baseline reference values derived from the biomarker evaluable population (BEP) are as follows (high is ≥reference value, and low is <reference value): CXCL9: 278.7 pg/mL; CXCL10: 445.4 pg/mL; CXCL11:104.2 pg/mL; L-6: 15550 fg/mL; TNFα: 1194 fg/mL. Induction reference values derived from the BEP are as follows (high is ≥reference value, and low is <reference value): CXCL9: 1.76 fold change; CXCL10: 1.52 fold change; […]: 1.14 fold change IL-18: 1.1 fold change; IFNγ: 1.23 fold change.

B1: zimberelimab (antibody, chains of the INN, looked up, V domains shown)
VH: QLQLQESGPGLVKPSETLTLTCTVSADSISSTTYYWVWIRQPPGKGLEWIGSISYSGSTYYNPSLKSRVTVSVDTSKNQFSLKLNSVAATDTALYYCARHLGYNGRYLPFDYWGQGTLVTVSS
VL: QSALTQPASVSGSPGQSITISCTGTSSDVGFYNYVSWYQQHPGKAPELMIYDVSNRPSGVSDRFSGSKSGNTASLTISGLQAEDEADYYCSSYTSISTWVFGGGTKLTVL
notes: zimberelimab monotherapy 360 mg IV Q3W; anti-PD-1 antibody
BEP (fold change from baseline to C2D1)
  PFS: 5.7 mo
BEP for cytokine analysis (baseline samples)
  PFS: 5.6 mo
CXCL9 High Induction at C2D1 (≥1.76 fold change)
  PFS: 2.7 mo
CXCL9 High at Baseline (≥278.7 pg/mL)
  PFS: 4 mo
CXCL9 Low Induction at C2D1 (<1.76 fold change)
  PFS: 9.7 mo
CXCL9 Low at Baseline (<278.7 pg/mL)
  PFS: 7.6 mo
CXCL10 High Induction at C2D1 (≥1.52 fold change)
  PFS: 2.7 mo
CXCL10 High at Baseline (≥445.4 pg/mL)
  PFS: 5.4 mo
CXCL10 Low Induction at C2D1 (<1.52 fold change)
  PFS: 11.7 mo
CXCL10 Low at Baseline (<445.4 pg/mL)
  PFS: 7.6 mo
CXCL11 High at Baseline (≥104.2 pg/mL)
  PFS: 4.9 mo
CXCL11 Low at Baseline (<104.2 pg/mL)
  PFS: 5.6 mo
IFNγ High Induction at C2D1 (≥1.23 fold change)
  PFS: 4.5 mo
IFNγ Low Induction at C2D1 (<1.23 fold change)
  PFS: 11.7 mo
IL-6 High at Baseline (≥15550 fg/mL)
  PFS: 1.8 mo
IL-6 Low at Baseline (<15550 fg/mL)
  PFS: 9.6 mo
IL-12B High Induction at C2D1 (≥1.14 fold change)
  PFS: 9.6 mo
IL-12B Low Induction at C2D1 (<1.14 fold change)
  PFS: 2.5 mo
IL-18 High Induction at C2D1 (≥1.1 fold change)
  PFS: 5.7 mo
IL-18 Low Induction at C2D1 (<1.1 fold change)
  PFS: 4.5 mo
TNFα High at Baseline (≥1194 fg/mL)
  PFS: 3.5 mo
TNFα Low at Baseline (<1194 fg/mL)
  PFS: 5.7 mo
